“Also recorded” adds a separate entry of the source. Where no end group is shown, it is not given here. The star is where a group is joined. FITC = O=C1OC2(c3ccc(O)cc3Oc3cc(O)ccc32)c2ccc(NC(=S)*)cc21
Assays:
[1] = tested on: DVL1; experiment: DVL1 stabilization by MLN4924 in HEK293T cells co-transfected with KLHL12; format: cell-based; conditions: western blot
Protocol: (§1) We further investigated whether the ‘PGGPP' motif regulates the KLHL12-dependent degradation of DVL1. WT and mutant DVL1 constructs were therefore transfected into HEK293T cells in the presence or absence of full-length KLHL12. […] By contrast, the levels of the DVL1 mutants were unchanged by KLHL12 co-expression.
(§2) Full-length Flag-KLHL12 and HA-DVL1 constructs were transfected into HEK293T cells at 60% confluency with polyethylenimine. 40 h after transfection, cells were treated with cycloheximide (CHX) for 1 h or MLN4924 for 4 h and then harvested and lysed. Protein levels were analysed by Western blotting (anti-Flag antibody, Sigma-Aldrich, F1804; RRID:AB_262044 and anti-HA antibody, Biolegend, 901501; RRID:AB_2565006).

[2] = target: T1, KLHL12 Kelch domain (Homo sapiens, UniProt Q53G59); experiment: Fluorescence polarization peptide binding to KLHL12; conditions: N-terminal FITC-labelled peptide 40 nM, 50 mM HEPES pH 7.5, 300 mM NaCl, 0.5 mM TCEP, 0.01% Triton-X, mean, n = 3
T1 construct: Human KLHL12 Kelch domain (Uniprot Q53G59-1, residues 268–567); His6 (N); made in house; host or cells: E. coli BL21(DE3)-R3-pRARE, vector pNIC28-Bsa4 (Addgene_38908)
T1 sequence (Q53G59 268-567): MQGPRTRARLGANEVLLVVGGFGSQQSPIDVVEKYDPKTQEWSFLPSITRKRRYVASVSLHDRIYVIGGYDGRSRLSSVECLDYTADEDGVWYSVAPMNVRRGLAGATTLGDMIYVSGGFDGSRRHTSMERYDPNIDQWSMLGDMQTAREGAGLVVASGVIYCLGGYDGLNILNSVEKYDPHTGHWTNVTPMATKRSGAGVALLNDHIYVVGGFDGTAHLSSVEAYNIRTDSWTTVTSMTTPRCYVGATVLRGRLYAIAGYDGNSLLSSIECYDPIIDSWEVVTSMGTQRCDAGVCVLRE
Protocol: Human KLHL12 Kelch domain (Uniprot Q53G59-1, residues 268–567) and KLHL7 Kelch domain (Uniprot Q8IXQ5-1, residues 283–586) were expressed from the vector pNIC28-Bsa4 in BL21(DE3)-R3-pRARE cells and purified by nickel affinity and size exclusion chromatography as described previously. Both plasmids are deposited in addgene (RRID:Addgene_38908 and RRID:Addgene_39023, respectively).
Fluorescence polarization assays were performed in 384-well plates using a Synergy 2 microplate reader (BioTek) with excitation and emission wavelengths of 485 nm and 528 nm, respectively. Peptides were synthesized, N-terminally labelled with FITC and purified by Tufts University Core Services (Boston, MA). Binding assays were performed in 10 µl volume at a constant labelled peptide concentration of 40 nM and indicated Kelch domain protein concentrations in a buffer containing 50 mM HEPES, pH 7.5, 300 mM NaCl, 0.5 mM TCEP and 0.01% Triton-X. Binding data were corrected for background of the free labelled peptides (no protein). For KD determination, data were fitted to a hyperbolic function using Sigma Plot software (Systat Software, San Jose CA). KD values represent mean ± S.E. (n = 3).

[3] = target: T2, Human KLHL12 Kelch domain (residues 268-567) (human, UniProt Q53G59-1 268-567); experiment: fluorescence polarisation; 40 nM FITC-labelled peptide, Kelch domain protein titrated; 50 mM HEPES pH 7.5, 300 mM NaCl, 0.5 mM TCEP, 0.01% Triton-X; hyperbolic fit, n = 3; conditions: both partners purified
T2 construct: KLHL12 Kelch domain, human, Uniprot Q53G59-1, residues 268-567; the structure traces residues 279-567; The His6 tag is kept in the SPOT arrays (detected with anti-His antibody); Expressed from the vector pNIC28-Bsa4; also called 6 x His-KLHL12 Kelch domain; His6-tagged KLHL12 Kelch domain
T2 sequence (looked up): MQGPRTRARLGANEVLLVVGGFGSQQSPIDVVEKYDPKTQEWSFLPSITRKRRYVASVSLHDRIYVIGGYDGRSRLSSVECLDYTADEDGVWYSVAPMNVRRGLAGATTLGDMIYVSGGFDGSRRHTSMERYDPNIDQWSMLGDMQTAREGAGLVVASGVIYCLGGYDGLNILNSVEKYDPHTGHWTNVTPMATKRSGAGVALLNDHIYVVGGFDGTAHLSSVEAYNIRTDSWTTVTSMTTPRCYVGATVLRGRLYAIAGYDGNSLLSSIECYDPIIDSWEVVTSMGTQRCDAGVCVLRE

[4] = target: T2, Human KLHL12 Kelch domain (residues …); experiment: peptide or protein array; initial DVL1 SPOT array: 20-mer peptides on cellulose membrane, incubated with 0.4 µM His6-tagged Kelch domain protein in PBS for 1 h at 4°C, bound protein detected with HRP-conjugated anti-His antibody; conditions: both partners purified
[5] = tested on: KLHL12; conditions: parallel study, ref [36] Zhao et al.; cited from earlier work
Text: The omitted proline position is substituted by a glycine or alanine in pa ...

[6] = tested on: full-length Flag-tagged KLHL12; experiment: Co-immunoprecipitation of HA-DVL1 variants with Flag-KLHL12 in HEK293T cells; format: cell-based; conditions: MLN4924 4 h, anti-Flag immunoprecipitation, western blot
Protocol: To validate the identified ‘PGGPP' sequence as degron motif for DVL1 recruitment and degradation by the KLHL12, we tested the binding, ubiquitination and stability of DVL1 in HEK293T cells. Two variants of full-length HA-tagged DVL1 were prepared in which the 657-‘PPGGPP' motif was either mutated to ‘AAAAAA' or deleted. Immunoprecipitation of the complex using full-length Flag-tagged KLHL12 was performed in cells treated with the neddylation inhibitor MLN4924 to ensure the stability of all transfected DVL1 variants. […] To confirm that the interaction promoted DVL1 ubiquitination, we next transfected Flag-tagged KLHL12 and HA-DVL1 variants into cells pretreated with the proteasome inhibitor MG132. DVL1 was immunoprecipitated by anti-HA agarose and its ubiquitination status probed by immunoblotting for the presence of high molecular weight poly-ubiquitin conjugates. A marked reduction in the ubiquitination of the two DVL1 mutants was observed compared to wild-type consistent with the importance of the ‘PGGPP' motif for KLHL12 recruitment (figure 5b). […]
Full-length DVL1 variants (Uniprot O14640-1) and KLHL12 were subcloned into a pcDNA3 vector, with N-terminal HA tag and Flag tag, respectively. […] Results were analysed using western blotting (Anti-Flag antibody, Sigma-Aldrich, F1804; RRID:AB_262044; Anti-HA antibody, Biolegend, 901501; RRID:AB_2565006).

[7] = tested on: full-length KLHL12; experiment: Stability assay of DVL1 variants with or without KLHL12 in HEK293T cells; format: cell-based; conditions: KLHL12 co-expression versus DVL1 alone, cycloheximide 1 h, western blot, GAPDH loading control
Protocol: as §1, §2

For `NS(=O)(=O)OC[C@@H]1C[C@@H](n2ccc3c(N[C@H]4CCc5ccccc54)ncnc32)C[C@@H]1O` [MLN4924], the “stability of DVL1 WT on MLN4924” value ([1]; HEK293T cells co-transfected with DVL1 WT and KLHL12, MLN4924 4 h) was “stabilized DVL1 WT; also recorded: rescued the stability of DVL1 WT” and the “stability of DVL1 mutants on MLN4924” value ([1]; HEK293T cells co-transfected with DVL1 mutants and KLHL12, MLN4924 4 h) was “not DVL1 mutants”.

For `CC(C)C[C@H](NC(=O)[C@H](CCC(=O)O)NC(=O)[C@H](CCCNC(=N)N)NC(=O)[C@@H](NC(=O)[C@@H]1CCCN1C(=O)[C@@H]1CCCN1C(=O)CNC(=O)CNC(=O)[C@@H]1CCCN1C(=O)[C@@H]1CCCN1C(=O)CNC(=O)CNC(=O)[C@@H](NC(=O)[C@@H](NC(=O)[C@@H](NC(=O)[C@H](Cc1ccc(O)cc1)NC(=O)[C@H](C)N)[C@@H](C)O)C(C)C)C(C)C)C(C)C)C(=O)N[C@@H](C)C(=O)N[C@@H](C)C(=O)N[C@H](C(=O)O)C(C)C` [Spot A13], the Kd [2] was 22.3 µM.

B1: FITC-labelled DVL1 peptide, residues 650-669 (peptide, UniProt O14640-1 650-669, looked up)
peptide: {FITC}-AYTVVGGPPGGPPVRELAAV
notes: source: synthetic peptide (Tufts University Core Services), purified
In the case of B1, the Kd [3] is reported as 22.3 µM.

B2: DVL1 20-mer peptide, residues 650-669, printed on the SPOT array (spot A13) (peptide, UniProt O14640-1 650-669, looked up)
peptide: AYTVVGGPPGGPPVRELAAV
notes: source: synthetic peptide, synthesized directly on a modified cellulose membrane with a polyethylglycol linker (SPOT)
B2: binds [4].

B3: DVL3 (Zhao et al.): DVL3, KLHL12 binding by NMR in a parallel study by Zhao et al. (protein, UniProt Q92997 1-716, looked up)
Segment polarity protein …: MGETKIIYHLDGQETPYLVKLPLPAERVTLADFKGVLQRPSYKFFFKSMDDDFGVVKEEISDDNAKLPCFNGRVVSWLVSAEGSHPDPAPFCADNPSELPPPMERTGGIGDSRPPSFHPHAGGGSQENLDNDTETDSLVSAQRERPRRRDGPEHATRLNGTAKGERRREPGGYDSSSTLMSSELETTSFFDSDEDDSTSRFSSSTEQSSASRLMRRHKRRRRKQKVSRIERSSSFSSITDSTMSLNIITVTLNMEKYNFLGISIVGQSNERGDGGIYIGSIMKGGAVAADGRIEPGDMLLQVNEINFENMSNDDAVRVLREIVHKPGPITLTVAKCWDPSPRGCFTLPRSEPIRPIDPAAWVSHTAAMTGTFPAYGMSPSLSTITSTSSSITSSIPDTERLDDFHLSIHSDMAAIVKAMASPESGLEVRDRMWLKITIPNAFIGSDVVDWLYHNVEGFTDRREARKYASNLLKAGFIRHTVNKITFSEQCYYIFGDLCGNMANLSLHDHDGSSGASDQDTLAPLPHPGAAPWPMAFPYQYPPPPHPYNPHPGFPELGYSYGGGSASSQHSEGSRSSGSNRSGSDRRKEKDPKAGDSKSGGSGSESDHTTRSSLRGPRERAPSERSGPAASEHSHRSHHSLASSLRSHHTHPSYGPPGVPPLYGPPMLMMPPPPAAMGPPGAPPGRDLASVPPELTASRQSFRMAMGNPSEFFVDVM
For B3, the “binding to KLHL12 by NMR” value [5] is given as “confirmed the binding”.

B4: DVL1 WT: full-length HA-tagged wild-type DVL1 expressed in cells (protein)
chain: MAETKIIYHMDEEETPYLVKLPVAPERVTLADFKNVLSNRPVHAYKFFFKSMDQDFGVVKEEIFDDNAKLPCFNGRVVSWLVLAEGAHSDAGSQGTDSHTDLPPPLERTGGIGDSRPPSFHPNVASSRDGMDNETGTESMVSHRRERARRRNREEAARTNGHPRGDRRRDVGLPPDSASTALSSELESSSFVDSDEDGSTSRLSSSTEQSTSSRLIRKHKRRRRKQRLRQADRASSFSSITDSTMSLNIVTVTLNMERHHFLGISIVGQSNDRGDGGIYIGSIMKGGAVAADGRIEPGDMLLQVNDVNFENMSNDDAVRVLREIVSQTGPISLTVAKCWDPTPRSYFTVPRADPVRPIDPAAWLSHTAALTGALPRYGTSPCSSAVTRTSSSSLTSSVPGAPQLEEAPLTVKSDMSAVVRVMQLPDSGLEIRDRMWLKITIANAVIGADVVDWLYTHVEGFKERREARKYASSLLKHGFLRHTVNKITFSEQCYYVFGDLCSNLATLNLNSGSSGTSDQDTLAPLPHPAAPWPLGQGYPYQYPGPPPCFPPAYQDPGFSYGSGSTGSQQSEGSKSSGSTRSSRRAPGREKERRAAGAGGSGSESDHTAPSGVGSSWRERPAGQLSRGSSPRSQASATAPGLPPPHPTTKAYTVVGGPPGGPPVRELAAVPPELTGSRQSFQKAMGNPCEFFVDIM
modifications: left off: HA, N-terminal, kept
notes: full-length HA-tagged wild-type DVL1 expressed in cells
In the case of B4, the “binding of DVL1 to KLHL12 (immunoprecipitation)” value [6] is reported as “bound robustly”, the “binding of DVL1 to KLHL12 (immunoprecipitation)” value ([6]; listed as Wild-type (WT) DVL1) is reported as “bound robustly to KLHL12” and the “DVL1 protein level / stability” value [7] is reported as “striking reduction in the DVL1 protein level”.
